# Test results from US20130052663A1 (ADDEX PHARMA SA, priority 2010, published 2013).
# Columns and labels:
# [1] = target: T1, chimeric TNFR1-PDGFR Receptor (Homo sapiens, UniProt P19438); assay: Ca2+-dependent aequorin luminescence in HEK293T Aequorin cells expressing chimeric TNFR1(fl)-PDGFR(cd) receptor, HTS setting; type: cell-based, human TNFR1 / mouse PDGFR; conditions: for Effect on TNF-dependent intracellular calcium increase (luminescence AUC): 1 μM inhibitor, 3 ng/ml TNF
# T1 construct: yielding the expression construct pcDNA3.1 hygro TNFR1(fl)-PDGFR(cd) vector; mouse PDGFRb cytoplasmic tyrosine kinase domain (fusion partner); expressed in transfected cells; host or cells: HEK293T cells stably expressing apoaequorin
# T1 sequence (P19438 with tags, fused parts or gaps): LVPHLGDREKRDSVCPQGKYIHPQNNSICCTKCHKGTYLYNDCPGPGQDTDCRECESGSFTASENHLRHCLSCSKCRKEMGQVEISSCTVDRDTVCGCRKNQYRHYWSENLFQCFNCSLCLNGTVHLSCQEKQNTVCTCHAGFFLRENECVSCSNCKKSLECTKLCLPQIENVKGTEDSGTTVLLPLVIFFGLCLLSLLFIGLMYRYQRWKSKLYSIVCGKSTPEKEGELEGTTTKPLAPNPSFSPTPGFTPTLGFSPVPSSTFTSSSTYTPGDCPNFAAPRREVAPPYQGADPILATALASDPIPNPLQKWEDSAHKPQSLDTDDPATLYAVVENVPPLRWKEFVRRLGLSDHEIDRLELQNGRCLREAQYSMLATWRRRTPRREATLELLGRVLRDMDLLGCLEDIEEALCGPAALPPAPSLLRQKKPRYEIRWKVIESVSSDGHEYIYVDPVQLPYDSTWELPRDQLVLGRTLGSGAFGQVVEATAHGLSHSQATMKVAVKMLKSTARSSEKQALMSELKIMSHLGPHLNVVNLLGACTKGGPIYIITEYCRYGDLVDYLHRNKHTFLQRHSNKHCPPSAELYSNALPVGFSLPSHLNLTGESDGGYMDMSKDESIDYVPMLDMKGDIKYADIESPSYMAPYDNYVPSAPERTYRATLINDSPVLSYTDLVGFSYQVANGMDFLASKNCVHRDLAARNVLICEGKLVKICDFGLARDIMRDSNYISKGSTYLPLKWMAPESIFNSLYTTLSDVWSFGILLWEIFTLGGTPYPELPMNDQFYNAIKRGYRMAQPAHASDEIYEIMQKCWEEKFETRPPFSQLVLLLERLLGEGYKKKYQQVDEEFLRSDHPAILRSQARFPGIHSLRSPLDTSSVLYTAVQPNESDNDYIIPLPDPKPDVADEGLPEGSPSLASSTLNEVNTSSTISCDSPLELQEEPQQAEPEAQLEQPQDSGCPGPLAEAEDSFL
# Text: HEK293T stably expressing Apoaequorin were generated using standard cloning techniques. The HEK293T cells expressing Apoaequorin (“Aequorin cells”) were then further transfected as described in Examples 1-3 so as to express the chimeric receptors 1-3 as listed in Table 3.
# In particular, the HEK293T Apoaequorin cells were transfected with pcDNA3.1 hygro TNFR1-fl-PDGFR-cd vector as prepared in Example 1 using Optifect™ Transfection Reagent (Invitrogen), according to the manufacturer's protocol.
# HEK293T cells expressing Apoaequorin and the chimeric receptor (Example 4) were plated in 384-well plates at a concentration of 12500 cells per well in a final volume of 50 μl. The next day culture supernatants were removed and 25 μl labeling buffer (DMEM:F12 plus 0.1% BSA) containing 2.5 μM Coelenterazine h (Dalton Pharma services), was added. Cells were incubated at room temperature for 6 hrs. A FDSS7000 reader from Hamamatsu (Japan) was used to examine intracellular calcium levels. […] The instrument features include detection with a camera of fluorescence or luminescence and automatically converts fluorescence or luminescence signals into numeric data. This digital data is then used to determine the concentration of calcium inside the analyzed cells. The information is automatically analyzed in terms of a positive, negative or null effect of each test compound being examined. This system allowed differences between untreated and treated cells to be measured, for example by measuring the calcium flux in cells.
# After a baseline reading of 10 seconds, cells were incubated for 3 minutes with different doses of inhibitors or buffer controls. […] The results were analyzed using the FDSS analysis software from Hamamatsu. […]
# HEK293T Aequorin cells expressing fusion proteins as described in Example 4 were treated or not treated with 3 ng/ml of TNF and 300 ng/ml of an anti-TNFR1 antagonist monoclonal antibody (MAB225, R&D Systems) was added to half of the samples exposed to TNF. Following 10 minutes of exposure after TNF addition, the area under the curve was determined for each sample. […]
# [2] = target: chimeric receptor TNFR1(fl)-PDGFR(cd): full length human TNFR1 fused to the cytoplasmic tyrosine kinase domain of mouse PDGFR (human TNFR1 / mouse PDGFR); assay: cell-based or functional assay
# Target sequence (chain, as listed by the source mutant limits assumed): as the sequence (P19438 with tags, fused parts or gaps) above
Compound,Effect on TNF-dependent intracellular calcium increase (luminescence AUC) [1],Effect on TNF-dependent intracellular calcium increase (luminescence AUC) ([1]; listed as PDGFR tyrosine kinase inhibitor),"Inhibitory efficacy (dose response), compared with full-length PDGFR cells ([1]; inhibitor 3 μM to 0.45 nM, cells exposed to TNF)","EC50, Ca2+-dependent aequorin luminescence, AUC over 10 minutes [2] [ng/mL]","EC50, Ca2+-dependent aequorin luminescence, Max-Min [2] [ng/mL]","EC80, Ca2+-dependent aequorin luminescence, AUC over 10 minutes [2] [ng/mL]","EC80, Ca2+-dependent aequorin luminescence, Max-Min [2] [ng/mL]"
"COc1cc2ncnc(N3CCN(C(=O)Nc4ccc(Oc5ccccc5)cc4)CC3)c2cc1OC [PDGFR Tyrosine Kinase Inhibitor III, 4-(6,7-Dimethoxy-4-quinazolinyl)-N-(4-phenoxyphenyl)-1-piperazinecarboxamide]",prevented the detection of intracellular calcium increase,signalling is blocked,equal inhibitory efficacy,,,,
Tumor necrosis factor (TNF) (ligand),,,,1.27,1.06,2.9,3
